One molecule from patent publication US20220249561A1 can be followed below.

The assay concerns the target ALK 001P. The assay can be described thus: flow cytometry; CAR-T cells incubated with ALK 001P, detected with PE anti-His tag antibody and APC anti-CD3.
ALK 001P, sequence (chain, as listed by the source limits assumed): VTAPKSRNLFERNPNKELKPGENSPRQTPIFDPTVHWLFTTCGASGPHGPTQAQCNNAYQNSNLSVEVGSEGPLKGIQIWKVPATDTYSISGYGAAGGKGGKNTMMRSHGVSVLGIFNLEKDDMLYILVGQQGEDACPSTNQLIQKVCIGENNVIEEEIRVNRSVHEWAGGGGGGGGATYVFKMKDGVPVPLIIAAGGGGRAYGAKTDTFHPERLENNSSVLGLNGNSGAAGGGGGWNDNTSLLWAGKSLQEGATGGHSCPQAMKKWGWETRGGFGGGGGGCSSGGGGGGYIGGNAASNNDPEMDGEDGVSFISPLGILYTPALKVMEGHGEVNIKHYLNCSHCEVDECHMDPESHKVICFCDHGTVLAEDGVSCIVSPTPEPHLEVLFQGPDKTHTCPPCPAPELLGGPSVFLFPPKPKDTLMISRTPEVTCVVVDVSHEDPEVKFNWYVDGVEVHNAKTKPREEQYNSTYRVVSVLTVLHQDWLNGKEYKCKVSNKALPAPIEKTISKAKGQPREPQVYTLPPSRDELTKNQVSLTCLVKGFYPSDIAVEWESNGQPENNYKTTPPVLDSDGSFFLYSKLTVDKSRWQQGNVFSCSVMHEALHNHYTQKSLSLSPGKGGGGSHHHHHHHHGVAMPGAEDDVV

B1: CAR 021 (FAM150BTr-28z dCH2CH3) (protein)
chain: AEAAGLGPSPEQRVEIVPRDLRMKDKFLKHLTGPLYFSPKCSKHFHRLYHNTRDCTIPAYYKRCARLLTRLAVSPVCMEDKQEPKSCDKTHTCPPCDPAEPKSPDKTHTCPFWVLVVVGGVLACYSLLVTVAFIIFWVRSKRSRLLHSDYMNMTPRRPGPTRKHYQPYAPPRDFAAYRSRVKFSRSADAPAYQQGQNQLYNELNLGRREEYDVLDKRRGRDPEMGGKPRRKNPQEGLYNELQKDKMAEAYSEIGMKGERRRGKGHDGLYQGLSTATKDTYDALHMQALPPR
For B1, the Expression rate (% of cells positive for ALK 001P staining) stood at 24.1%.
